Test results as given in patent publication US20220064329A1 (Novo Nordisk, published 2022).

T1: recombinant human activated Factor VII (FVIIa) (human, UniProt P08709 61-212; P08709 213-466, ten glutamate residues of the Gla domain may be gamma-carboxylated)
T1 construct: chains tethered by a disulfide bond; also called Factor VIIa; rFVIIa
T1 sequence 1: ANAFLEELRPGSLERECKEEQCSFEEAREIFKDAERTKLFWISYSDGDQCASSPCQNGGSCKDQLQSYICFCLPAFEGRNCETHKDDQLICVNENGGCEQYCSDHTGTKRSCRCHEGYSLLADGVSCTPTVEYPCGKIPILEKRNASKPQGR
T1 sequence 2: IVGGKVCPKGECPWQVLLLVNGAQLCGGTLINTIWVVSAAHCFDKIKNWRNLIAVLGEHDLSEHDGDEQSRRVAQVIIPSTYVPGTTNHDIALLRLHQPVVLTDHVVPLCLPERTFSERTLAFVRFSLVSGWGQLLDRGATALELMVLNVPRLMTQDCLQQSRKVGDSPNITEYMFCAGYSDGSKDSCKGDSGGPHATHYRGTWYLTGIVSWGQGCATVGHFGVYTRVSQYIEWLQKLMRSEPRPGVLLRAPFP


Biological target: T1, recombinant human activated Factor VII …
Test: BLI (Fortebio)
Experimental: All steps were performed in running buffer (20 mM HEPES buffer (pH 7.4), 150 mM NaCl, 5 mM CaCl2, 0.03% Tween 20, 1 mg/ml IgG-free BSA) at […] Antibodies were captured on anti-human tips (AHC, Fortebio) for 3 min at a concentration of 10 ug/ml. This was followed by a 3 min incubation to establish a baseline. Following this, association was monitored for 3 min using four different concentrations of VIIa (25 nm, 50 nM, 100 nM, and 200 nM), followed by a 3 mi dissociation. Sensorgrams were analysed using Fortebio data analysis software.

Binder | Kd [nM]
VH SEQ ID NO 514 / VL SEQ ID NO 358 (antibody, IgG4, V domains shown, humanized 11F2; IgG4 S228P/kappa) VH: QVQLQESGPGLVEPSDTLSLTCAVSGYSITSDSAWSWIRQPPGKKLEWIGYIQYSGSTNYNPSLKSRVTMSRDTSKNQFSLKLSSVTALDTAVYYCARSVNYYGNSFAVGYWGQGTLVTVSS VL: EIVLTQSPATLSLSPGERATLSCRASQGISDYLHWYQQKPGQAPRLLIKYTSQPATGIPARFSGSGSGTDFTLTISSLEPEDFAVYYCQNGHSFPLTFGQGTKLEIK | 0.87
VH SEQ ID NO 514 / VL SEQ ID NO 462 (antibody, IgG4, V domains shown, humanized 11F2; IgG4 S228P/kappa) VH: QVQLQESGPGLVEPSDTLSLTCAVSGYSITSDSAWSWIRQPPGKKLEWIGYIQYSGSTNYNPSLKSRVTMSRDTSKNQFSLKLSSVTALDTAVYYCARSVNYYGNSFAVGYWGQGTLVTVSS VL: EIVLTQSPATLSLSPGERATLSCRASQGVSDYLHWYQQKPGQAPRLLIKYASQPATGIPARFSGSGSGTDFTLTISSLEPEDFAVYYCQNGHSFPLTFGAGTKLEIK | 1.2
VH SEQ ID NO 514 / VL SEQ ID NO 470 (antibody, IgG4, V domains shown, humanized 11F2; IgG4 S228P/kappa) VH: QVQLQESGPGLVEPSDTLSLTCAVSGYSITSDSAWSWIRQPPGKKLEWIGYIQYSGSTNYNPSLKSRVTMSRDTSKNQFSLKLSSVTALDTAVYYCARSVNYYGNSFAVGYWGQGTLVTVSS VL: EIVLTQSPATLSLSPGERATLSCRASQGVSDYLHWYQQKPGQAPRLLIKYASQPATGIPARFSGSGSGTDFTLTISSLEPEDFAVYYCQNGHSFPLTFGQGTKLEIK | 1.2
VH SEQ ID NO 514 / VL SEQ ID NO 486 (antibody, IgG4, V domains shown, humanized 11F2; IgG4 S228P/kappa) VH: QVQLQESGPGLVEPSDTLSLTCAVSGYSITSDSAWSWIRQPPGKKLEWIGYIQYSGSTNYNPSLKSRVTMSRDTSKNQFSLKLSSVTALDTAVYYCARSVNYYGNSFAVGYWGQGTLVTVSS VL: EIVLTQSPATLSLSPGERATLSCRASQGVSDYLHWYQQKPGQAPRLLIKYASQPATGIPARFSGSGSGTDFTLTISSLEPEDFGVYYCQNGHSFPLTFGQGTKLEIK | 0.95
VH SEQ ID NO 514 / VL SEQ ID NO 494 (antibody, IgG4, V domains shown, humanized 11F2; IgG4 S228P/kappa) VH: QVQLQESGPGLVEPSDTLSLTCAVSGYSITSDSAWSWIRQPPGKKLEWIGYIQYSGSTNYNPSLKSRVTMSRDTSKNQFSLKLSSVTALDTAVYYCARSVNYYGNSFAVGYWGQGTLVTVSS VL: EIVLTQSPATLSLSPGERATLSCRASQGVSDYLHWYQQKPGQAPRLLIKYASQPATGIPARFSGSGSGTDFTLTISSLEPEDVAVYYCQNGHSFPLTFGQGTKLEIK | 1.4
VH SEQ ID NO 514 / VL SEQ ID NO 414 (antibody, IgG4, V domains shown, humanized 11F2; IgG4 S228P/kappa) VH: QVQLQESGPGLVEPSDTLSLTCAVSGYSITSDSAWSWIRQPPGKKLEWIGYIQYSGSTNYNPSLKSRVTMSRDTSKNQFSLKLSSVTALDTAVYYCARSVNYYGNSFAVGYWGQGTLVTVSS VL: EIVLTQSPATLSLSPGERATLSCRASQGVSDYLAWYQQKPGQAPRLLIKYASQPATGIPARFSGSGSGTDFTLTISSLEPEDFAVYYCQNGHSFPLTFGQGTKLEIK | 4.6
VH SEQ ID NO 514 / VL SEQ ID NO 382 (antibody, IgG4, V domains shown, humanized 11F2; IgG4 S228P/kappa) VH: QVQLQESGPGLVEPSDTLSLTCAVSGYSITSDSAWSWIRQPPGKKLEWIGYIQYSGSTNYNPSLKSRVTMSRDTSKNQFSLKLSSVTALDTAVYYCARSVNYYGNSFAVGYWGQGTLVTVSS VL: EIVLTQSPATLSLSPGERATLSCRASQGLSDYLHWYQQKPGEAPRLLIKYASQPATGIPARFSGSGSGTDFTLTISSLEPEDFAVYYCQNGHSFPLTFGQGTKLEIK | 1.2
VH SEQ ID NO 514 / VL SEQ ID NO 406 (antibody, IgG4, V domains shown, humanized 11F2; IgG4 S228P/kappa) VH: QVQLQESGPGLVEPSDTLSLTCAVSGYSITSDSAWSWIRQPPGKKLEWIGYIQYSGSTNYNPSLKSRVTMSRDTSKNQFSLKLSSVTALDTAVYYCARSVNYYGNSFAVGYWGQGTLVTVSS VL: EIVLTQSPATLSLSPGERATLSCRASQGVSDYLAWYQQKPGQAPRLLIKYASQPATGIPARFSGSGSGTDFTLTISSLEPEDFAVYYCQNGHSFPLTFGAGTKLEIK | 5.3
VH SEQ ID NO 514 / VL SEQ ID NO 502 (antibody, IgG4, V domains shown, humanized 11F2; IgG4 S228P/kappa) VH: QVQLQESGPGLVEPSDTLSLTCAVSGYSITSDSAWSWIRQPPGKKLEWIGYIQYSGSTNYNPSLKSRVTMSRDTSKNQFSLKLSSVTALDTAVYYCARSVNYYGNSFAVGYWGQGTLVTVSS VL: EIVLTQSPATLSLSPGERATLSCRASQGVSDYLHWYQQKPGQAPRLLIKYTSQPATGIPARFSGSGSGTDFTLTISSLEPEDFAVYYCQNGHSFPLTFGQGTKLEIK | 0.92
VH SEQ ID NO 514 / VL SEQ ID NO 454 (antibody, IgG4, V domains shown, humanized 11F2; IgG4 S228P/kappa) VH: QVQLQESGPGLVEPSDTLSLTCAVSGYSITSDSAWSWIRQPPGKKLEWIGYIQYSGSTNYNPSLKSRVTMSRDTSKNQFSLKLSSVTALDTAVYYCARSVNYYGNSFAVGYWGQGTLVTVSS VL: EIVLTQSPATLSLSPGERATLSCRASQGVSDYLHWYQQKPGEAPRLLIKYASQPATGIPARFSGSGSGTDFTLTISSLEPEDFAVYYCQNGHSFPLTFGQGTKLEIK | 1.3
VH SEQ ID NO 514 / VL SEQ ID NO 366 (antibody, IgG4, V domains shown, humanized 11F2; IgG4 S228P/kappa) VH: QVQLQESGPGLVEPSDTLSLTCAVSGYSITSDSAWSWIRQPPGKKLEWIGYIQYSGSTNYNPSLKSRVTMSRDTSKNQFSLKLSSVTALDTAVYYCARSVNYYGNSFAVGYWGQGTLVTVSS VL: EIVLTQSPATLSLSPGERATLSCRASQGLSDYLAWYQQKPGEAPRLLIKYASQPATGIPARFSGSGSGTDFTLTISSLEPEDFAVYYCQNGHSFPLTFGQGTKLEIK | 1.4
VH SEQ ID NO 514 / VL SEQ ID NO 430 (antibody, IgG4, V domains shown, humanized 11F2; IgG4 S228P/kappa) VH: QVQLQESGPGLVEPSDTLSLTCAVSGYSITSDSAWSWIRQPPGKKLEWIGYIQYSGSTNYNPSLKSRVTMSRDTSKNQFSLKLSSVTALDTAVYYCARSVNYYGNSFAVGYWGQGTLVTVSS VL: EIVLTQSPATLSLSPGERATLSCRASQGVSDYLAWYQQKPGQAPRLLIKYASQPATGIPARFSGSGSGTDFTLTISSLEPEDFGVYYCQNGHSFPLTFGQGTKLEIK | 7.1
VH SEQ ID NO 514 / VL SEQ ID NO 478 (antibody, IgG4, V domains shown, humanized 11F2; IgG4 S228P/kappa) VH: QVQLQESGPGLVEPSDTLSLTCAVSGYSITSDSAWSWIRQPPGKKLEWIGYIQYSGSTNYNPSLKSRVTMSRDTSKNQFSLKLSSVTALDTAVYYCARSVNYYGNSFAVGYWGQGTLVTVSS VL: EIVLTQSPATLSLSPGERATLSCRASQGVSDYLHWYQQKPGQAPRLLIKYASQPATGIPARFSGSGSGTDFTLTISSLEPEDFAVYYCQQGHSFPLTFGQGTKLEIK | 1.9
VH SEQ ID NO 514 / VL SEQ ID NO 446 (antibody, IgG4, V domains shown, humanized 11F2; IgG4 S228P/kappa) VH: QVQLQESGPGLVEPSDTLSLTCAVSGYSITSDSAWSWIRQPPGKKLEWIGYIQYSGSTNYNPSLKSRVTMSRDTSKNQFSLKLSSVTALDTAVYYCARSVNYYGNSFAVGYWGQGTLVTVSS VL: EIVLTQSPATLSLSPGERATLSCRASQGVSDYLAWYQQKPGQAPRLLIKYTSQPATGIPARFSGSGSGTDFTLTISSLEPEDFAVYYCQNGHSFPLTFGQGTKLEIK | 7.7
VH SEQ ID NO 522 / VL SEQ ID NO 310 (antibody, IgG4, V domains shown, humanized 11F2; IgG4 S228P/kappa) VH: QVQLQESGPGLVEPSQTLSLTCTVSGYSISSDSAWSWIRQPPGKGLEWIGYIQYSGSTNYNPSLKSRVTISRDTSKNQFSLKLSSVTAADTAVYYCARSVNYYGNSFAVGPWGQGTLVTVSS VL: EIVLTQSPATLSLSPGERATLSCRASQGISDYLAWYQQKPGQAPRLLIKYASQPATGIPARFSGSGSGTDFTLTISSLEPEDFAVYYCQNGHSFPLTFGQGTKLEIK | 8.3
VH SEQ ID NO 514 / VL SEQ ID NO 422 (antibody, IgG4, V domains shown, humanized 11F2; IgG4 S228P/kappa) VH: QVQLQESGPGLVEPSDTLSLTCAVSGYSITSDSAWSWIRQPPGKKLEWIGYIQYSGSTNYNPSLKSRVTMSRDTSKNQFSLKLSSVTALDTAVYYCARSVNYYGNSFAVGYWGQGTLVTVSS VL: EIVLTQSPATLSLSPGERATLSCRASQGVSDYLAWYQQKPGQAPRLLIKYASQPATGIPARFSGSGSGTDFTLTISSLEPEDFAVYYCQQGHSFPLTFGQGTKLEIK | 68
VH SEQ ID NO 514 / VL SEQ ID NO 438 (antibody, IgG4, V domains shown, humanized 11F2; IgG4 S228P/kappa) VH: QVQLQESGPGLVEPSDTLSLTCAVSGYSITSDSAWSWIRQPPGKKLEWIGYIQYSGSTNYNPSLKSRVTMSRDTSKNQFSLKLSSVTALDTAVYYCARSVNYYGNSFAVGYWGQGTLVTVSS VL: EIVLTQSPATLSLSPGERATLSCRASQGVSDYLAWYQQKPGQAPRLLIKYASQPATGIPARFSGSGSGTDFTLTISSLEPEDVAVYYCQNGHSFPLTFGQGTKLEIK | 5.4
VH SEQ ID NO 514 / VL SEQ ID NO 390 (antibody, IgG4, V domains shown, humanized 11F2; IgG4 S228P/kappa) VH: QVQLQESGPGLVEPSDTLSLTCAVSGYSITSDSAWSWIRQPPGKKLEWIGYIQYSGSTNYNPSLKSRVTMSRDTSKNQFSLKLSSVTALDTAVYYCARSVNYYGNSFAVGYWGQGTLVTVSS VL: EIVLTQSPATLSLSPGERATLSCRASQGVSDYLAWYQQKPGEAPRLLIKYASQPATGIPARFSGSGSGTDFTLTISSLEPEDFAVYYCQNGHSFPLTFGQGTKLEIK | 4.7
VH SEQ ID NO 514 / VL SEQ ID NO 398 (antibody, IgG4, V domains shown, humanized 11F2; IgG4 S228P/kappa) VH: QVQLQESGPGLVEPSDTLSLTCAVSGYSITSDSAWSWIRQPPGKKLEWIGYIQYSGSTNYNPSLKSRVTMSRDTSKNQFSLKLSSVTALDTAVYYCARSVNYYGNSFAVGYWGQGTLVTVSS VL: EIVLTQSPATLSLSPGERATLSCRASQGVSDYLAWYQQKPGEAPRLLIKYTSQPATGIPARFSGSGSGTDFTLTISSLEPEDFAVYYCQNGHSFPLTFGQGTKLEIK | 7.9
